Results as given in publication PMC9482650, “Quantitative fragmentomics allow affinity mapping of interactomes” (Nature Communications, 2022).

Experiments:
Test in all cases: holdup assay
Design in all cases: key: below the threshold = too weak to quantify, mostly under pKd 3.1 to 4
Settings in all cases: plain residues with an end cap or a label only (N-terminal biotin on a linker: ado-ado)
GRIP1_7, Q9Y3R0 = target: T1, GRIP1_7, Q9Y3R0
T1 sequence (Q9Y3R0 999-1096, limits assumed, looked up): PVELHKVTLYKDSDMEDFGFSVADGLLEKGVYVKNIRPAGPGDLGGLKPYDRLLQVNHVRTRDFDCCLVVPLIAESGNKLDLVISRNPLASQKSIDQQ

FRMPD1, Q5SYB0 = target: T2, FRMPD1, Q5SYB0
T2 sequence (Q5SYB0 52-145, limits assumed, looked up): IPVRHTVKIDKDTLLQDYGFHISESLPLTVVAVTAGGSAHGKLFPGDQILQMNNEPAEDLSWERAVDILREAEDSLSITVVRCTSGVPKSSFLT

APBA1_2, Q02410 = target: T3, APBA1_2, Q02410
T3 sequence (Q02410 742-832, limits assumed, looked up): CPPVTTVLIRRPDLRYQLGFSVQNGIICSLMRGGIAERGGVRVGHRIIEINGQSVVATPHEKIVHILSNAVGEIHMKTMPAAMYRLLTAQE

IL16_4, Q14005 = target: IL16_4, Q14005
IL16_4, Q14005, sequence (Q14005 1229-1329): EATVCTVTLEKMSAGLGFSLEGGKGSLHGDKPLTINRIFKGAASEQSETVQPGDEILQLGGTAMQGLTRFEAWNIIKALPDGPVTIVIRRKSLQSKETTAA

FRMPD4, Q14CM0 = target: FRMPD4, Q14CM0
FRMPD4, Q14CM0, sequence (Q14CM0 67-160): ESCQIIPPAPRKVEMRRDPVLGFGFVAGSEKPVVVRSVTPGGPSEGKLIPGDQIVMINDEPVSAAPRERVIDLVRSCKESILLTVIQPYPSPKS

GRIP2_7, Q9C0E4 = target: GRIP2_7, Q9C0E4
GRIP2_7, Q9C0E4, sequence (Q9C0E4 934-1023): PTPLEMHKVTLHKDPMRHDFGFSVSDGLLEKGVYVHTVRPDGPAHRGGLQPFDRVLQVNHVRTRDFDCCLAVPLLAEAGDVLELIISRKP

DLG2_3, Q15700 = target: DLG2_3, Q15700
MAGI2_3, Q86UL8 = target: MAGI2_3, Q86UL8
MAGI2_3, Q86UL8, sequence (Q86UL8 600-682): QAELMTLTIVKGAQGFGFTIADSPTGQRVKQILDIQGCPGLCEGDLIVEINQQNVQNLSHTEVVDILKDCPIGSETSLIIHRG

NHERF3_1, Q5T2W1 = target: T4, NHERF3_1, Q5T2W1
T4 sequence (Q5T2W1 4-100, limits assumed, looked up): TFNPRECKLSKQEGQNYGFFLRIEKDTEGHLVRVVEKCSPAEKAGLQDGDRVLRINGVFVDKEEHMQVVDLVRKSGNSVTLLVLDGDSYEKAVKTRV

APBA2_1, Q99767 = target: T5, APBA2_1, Q99767
T5 sequence (Q99767 563-664, limits assumed, looked up): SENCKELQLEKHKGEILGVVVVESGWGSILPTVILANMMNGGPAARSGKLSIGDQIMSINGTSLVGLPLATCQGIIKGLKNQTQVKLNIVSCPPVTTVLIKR

DFNB31_1, Q9P202 = target: T6, DFNB31_1, Q9P202
T6 sequence (Q9P202 135-233, limits assumed, looked up): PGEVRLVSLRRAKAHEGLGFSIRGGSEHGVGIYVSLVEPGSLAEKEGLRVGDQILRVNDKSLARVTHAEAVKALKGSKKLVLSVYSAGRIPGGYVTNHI

DLG1_2, Q12959 = target: DLG1_2, Q12959
NHERF3_4, Q5T2W1 = target: T7, NHERF3_4, Q5T2W1
T7 sequence (Q5T2W1 373-468, limits assumed, looked up): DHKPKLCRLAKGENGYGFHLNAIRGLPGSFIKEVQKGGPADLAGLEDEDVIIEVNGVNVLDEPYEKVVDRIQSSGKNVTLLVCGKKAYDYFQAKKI

Inadl_2, Q8NI35 = target: Inadl_2, Q8NI35
Inadl_2, Q8NI35, sequence (Q8NI35 238-335): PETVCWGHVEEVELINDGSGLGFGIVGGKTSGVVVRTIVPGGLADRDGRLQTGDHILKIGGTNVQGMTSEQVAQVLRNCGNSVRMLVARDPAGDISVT

APBA1_1, Q02410 = target: T8, APBA1_1, Q02410
T8 sequence (Q02410 651-752, limits assumed, looked up): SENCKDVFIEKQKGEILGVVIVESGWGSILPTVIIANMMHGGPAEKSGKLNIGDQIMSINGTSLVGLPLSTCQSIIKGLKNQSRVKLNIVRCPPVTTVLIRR

NHERF3_3, Q5T2W1 = target: T9, NHERF3_3, Q5T2W1
T9 sequence (Q5T2W1 238-333, limits assumed, looked up): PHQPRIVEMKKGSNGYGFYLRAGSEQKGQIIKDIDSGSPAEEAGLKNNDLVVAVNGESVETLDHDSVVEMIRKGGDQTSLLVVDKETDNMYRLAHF

HTRA2, O43464 = target: HTRA2, O43464
HTRA2, O43464, sequence (O43464 355-458): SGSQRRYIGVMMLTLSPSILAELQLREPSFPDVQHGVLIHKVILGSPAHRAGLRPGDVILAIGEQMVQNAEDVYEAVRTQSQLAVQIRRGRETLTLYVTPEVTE

PTPN13_1, Q12923 = target: T10, PTPN13_1, Q12923
T10 sequence (Q12923 1088-1188, limits assumed, looked up): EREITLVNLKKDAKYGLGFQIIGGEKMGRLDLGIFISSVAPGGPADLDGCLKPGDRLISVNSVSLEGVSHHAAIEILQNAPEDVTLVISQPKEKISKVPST

FRMPD3, Q5JV73 = target: FRMPD3, Q5JV73
FRMPD3, Q5JV73, sequence (Q5JV73 12-100): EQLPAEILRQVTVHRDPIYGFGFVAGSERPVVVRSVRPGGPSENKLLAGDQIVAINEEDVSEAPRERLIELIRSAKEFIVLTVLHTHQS

MAGI2_2, Q86UL8 = target: MAGI2_2, Q86UL8
MAGI2_2, Q86UL8, sequence (Q86UL8 410-522): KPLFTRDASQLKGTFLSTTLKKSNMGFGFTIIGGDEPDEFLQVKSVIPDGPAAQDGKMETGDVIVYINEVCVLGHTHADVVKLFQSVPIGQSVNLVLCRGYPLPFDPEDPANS

DLG1_1, Q12959 = target: DLG1_1, Q12959
DLG1_3, Q12959 = target: DLG1_3, Q12959
LRRC7, Q96NW7 = target: T11, LRRC7, Q96NW7
T11 sequence (Q96NW7 1440-1537, limits assumed, looked up): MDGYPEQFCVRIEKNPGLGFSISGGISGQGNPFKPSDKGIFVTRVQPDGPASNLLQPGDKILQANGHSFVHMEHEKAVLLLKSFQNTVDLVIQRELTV

Inadl_5, Q8NI35 = target: Inadl_5, Q8NI35
Inadl_5, Q8NI35, sequence (Q8NI35 673-780): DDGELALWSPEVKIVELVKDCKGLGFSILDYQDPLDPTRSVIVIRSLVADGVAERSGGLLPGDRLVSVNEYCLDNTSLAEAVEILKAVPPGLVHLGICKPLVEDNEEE

APBA3_1, O96018 = target: T12, APBA3_1, O96018
T12 sequence (O96018 389-490, limits assumed, looked up): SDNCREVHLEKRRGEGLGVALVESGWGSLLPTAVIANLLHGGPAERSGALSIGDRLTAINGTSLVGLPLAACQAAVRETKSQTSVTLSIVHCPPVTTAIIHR

GRID2IP_1, A4D2P6 = target: GRID2IP_1, A4D2P6
GRID2IP_1, A4D2P6, sequence (A4D2P6 1-87): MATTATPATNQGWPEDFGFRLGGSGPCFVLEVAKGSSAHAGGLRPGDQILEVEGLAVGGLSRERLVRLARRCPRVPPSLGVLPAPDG

Measured: pKd

B1: KCNJ1, P48048 (peptide)
chain: EVNETDDTKM
below the threshold: GRIP1_7, Q9Y3R0 | FRMPD1, Q5SYB0 | APBA1_2, Q02410 | GRIP2_7, Q9C0E4 | DLG2_3, Q15700 | APBA2_1, Q99767 | DLG1_2, Q12959 | Inadl_2, Q8NI35 | APBA1_1, Q02410 | NHERF3_3, Q5T2W1 | HTRA2, O43464 | PTPN13_1, Q12923 | FRMPD3, Q5JV73 | MAGI2_2, Q86UL8 | DLG1_1, Q12959 | DLG1_3, Q12959 | LRRC7, Q96NW7 | Inadl_5, Q8NI35 | APBA3_1, O96018 | GRID2IP_1, A4D2P6
3.69: DFNB31_1, Q9P202
3.75: FRMPD4, Q14CM0
3.48: MAGI2_3, Q86UL8 | NHERF3_4, Q5T2W1
5.39: NHERF3_1, Q5T2W1
3.64: IL16_4, Q14005

B2: KCNA1, Q09470 (peptide)
chain: VNKSKLLTDV
4.06: MAGI2_2, Q86UL8
4.11: DLG1_1, Q12959
4.55: DLG1_2, Q12959
3.57: DLG2_3, Q15700
3.56: APBA1_2, Q02410
below the threshold: GRIP1_7, Q9Y3R0 | FRMPD1, Q5SYB0 | IL16_4, Q14005 | FRMPD4, Q14CM0 | GRIP2_7, Q9C0E4 | MAGI2_3, Q86UL8 | NHERF3_1, Q5T2W1 | APBA2_1, Q99767 | DFNB31_1, Q9P202 | NHERF3_4, Q5T2W1 | Inadl_2, Q8NI35 | APBA1_1, Q02410 | NHERF3_3, Q5T2W1 | HTRA2, O43464 | PTPN13_1, Q12923 | FRMPD3, Q5JV73 | DLG1_3, Q12959 | LRRC7, Q96NW7 | Inadl_5, Q8NI35 | APBA3_1, O96018 | GRID2IP_1, A4D2P6

B3: CTNNA1, P35221 (peptide)
chain: LSEFKAMDSI
below the threshold: GRIP1_7, Q9Y3R0 | FRMPD1, Q5SYB0 | APBA1_2, Q02410 | IL16_4, Q14005 | FRMPD4, Q14CM0 | GRIP2_7, Q9C0E4 | DLG2_3, Q15700 | MAGI2_3, Q86UL8 | NHERF3_1, Q5T2W1 | APBA2_1, Q99767 | DFNB31_1, Q9P202 | DLG1_2, Q12959 | NHERF3_4, Q5T2W1 | Inadl_2, Q8NI35 | APBA1_1, Q02410 | NHERF3_3, Q5T2W1 | HTRA2, O43464 | PTPN13_1, Q12923 | FRMPD3, Q5JV73 | MAGI2_2, Q86UL8 | DLG1_1, Q12959 | DLG1_3, Q12959 | LRRC7, Q96NW7 | Inadl_5, Q8NI35 | APBA3_1, O96018 | GRID2IP_1, A4D2P6

B4: BAZ1A, Q9NRL2 (peptide)
chain: TPPAAKKSRI
below the threshold: GRIP1_7, Q9Y3R0 | FRMPD1, Q5SYB0 | APBA1_2, Q02410 | FRMPD4, Q14CM0 | GRIP2_7, Q9C0E4 | DLG2_3, Q15700 | MAGI2_3, Q86UL8 | NHERF3_1, Q5T2W1 | APBA2_1, Q99767 | DLG1_2, Q12959 | NHERF3_4, Q5T2W1 | Inadl_2, Q8NI35 | APBA1_1, Q02410 | NHERF3_3, Q5T2W1 | HTRA2, O43464 | PTPN13_1, Q12923 | FRMPD3, Q5JV73 | MAGI2_2, Q86UL8 | DLG1_1, Q12959 | LRRC7, Q96NW7 | Inadl_5, Q8NI35 | APBA3_1, O96018 | GRID2IP_1, A4D2P6
3.69: IL16_4, Q14005
3.81: DLG1_3, Q12959
3.68: DFNB31_1, Q9P202
